Assay results: patent CN113461812A (BEIJING LUFEI BIOTECHNOLOGY CO LTD, dated 2021)

How the values were obtained:
Test in all cases: SPR (Biacore), 1:1 binding fit
[1] = molecular target: T1, RBD突变型(N501Y) (SARS-CoV-2, UniProt P0DTC2 319-541)
T1 construct: domain: RBD

[2] = molecular target: T2, RBD突变型(K417T E484K N501Y) (SARS-CoV-2, UniProt P0DTC2 319-541)
T2 construct: domain: RBD

[3] = molecular target: T3, RBD突变型(K417N E484K N501Y) (SARS-CoV-2, UniProt P0DTC2 319-541)
T3 construct: domain: RBD

B1: 人源化新冠病毒中和性抗体nCoV-00D (antibody, V domains shown)
VH: QVQLQQSGAELVKPGASVKLSCKTSGYTFTRYYIYWVKQRPGQGLEWIGEINPNNGGTNFNEKFKSKATLTVDKSSNTAYMQLSSLTSEDSAVYYCTIFITTVIARDYWGQGTLVTVSA
VL: DIVLTQSPASLAVSLGQRATISCRASESVEYSGTTLMQWFQQKPGQPPKLLIYAASNVESGVPARFSGSGSGTDFSLNIHPVEEDDVAMYFCHQSREVPWTFGGGTKLEIKR
notes: also called nCoV-00D抗体
Binder B1 has a Kd [1] of 0.246 pM, a koff [1] of 9.51e-08 s⁻¹ and a kon [1] of 387000 M⁻¹ s⁻¹. It also gave a Kd [2] of 0.53 pM, a koff [2] of 1.98e-08 s⁻¹ and a kon [2] of 37400 M⁻¹ s⁻¹. The Kd [3] was 7.91 pM, the koff [3] was 2.35e-07 s⁻¹ and the kon [3] was 29700 M⁻¹ s⁻¹.
